The data set can be described thus: protein stability index of a GFP-peptide fusion (GPS, HEK-293T) (PSI 1-6); higher = more stable.
The mark [1] stands for this setting: treatment: DMSO, c terminus: a fixed tail appended.
The mark [2] stands for this setting: treatment: MLN4924 1 uM, 8 h, c terminus: a fixed tail appended.

± gives the standard deviation.
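Further: 24-mer peptide tiles fused after GFP, lentivirally expressed, FACS-sorted into six equal bins by GFP/DsRed ratio, decoded by Illumina sequencing, PSI is the read-weighted mean bin number.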

On to PCPSTTCCRACSVSFSTGAGGWSN [BET1L], for which the protein stability index reads like this: under setting [1], 2.27 ± 0.91; under setting [2], 2.02 ± 0.47.

Consider PDGGRADEWACELRLFGRVLERAA [P3H4], for which the protein stability index is, setting by setting: under setting [1], 2.46 ± 0.3; under setting [2], 2.62 ± 0.38.

Turning to PDKECRRCMQCDAKFDFLTRKHHC [ZFYVE21], the protein stability index under setting [1] worked out at 3.91 ± 0.078 and the protein stability index under setting [2] is 4 ± 0.27.

PDKEEQLPFGPFNGTAWTYHSQDE [PKD2L1] showed a protein stability index under setting [1] of 4.67 ± 0.1 and a protein stability index under setting [2] of 4.76 ± 0.38.

For the sequence PDLVKGPWTKEEDQKVIELVKKYG [MYBL2], the protein stability index amounted to 3.86 ± 0.22 under setting [1] and 3.99 ± 0.21 under setting [2].

Regarding PDQEAEPQEAAGAQGRAGAPVPEP [EPB41L3], the protein stability index came to 5.69 ± 0.21 under setting [1] and 5.69 ± 0.23 under setting [2].

For the sequence PDSFYELKSQPLPLRSSLPISLQA [TFE3], the protein stability index by setting is: under setting [1], 3.14 ± 0.15; under setting [2], 3.26 ± 0.29.

Regarding PEQALDTPGDCPPGRRDEDAGEGI [TMEM175], the protein stability index by setting is: under setting [1], 5.53 ± 0.23; under setting [2], 5.43 ± 0.17.

For the sequence PEQQVDMHDMLLEELAPVGTAHIP [ZNF449], the protein stability index under setting [1] turned out to be 4.68 ± 0.28 and the protein stability index under setting [2] worked out at 4.8 ± 0.085.

PERSYVFNGDFVDRGKDSVEILMI [PPEF2] displayed a protein stability index under setting [1] of 2 ± 0.38 and a protein stability index under setting [2] of 2.23 ± 0.31.

PGDPKWLDVIERDLHRQFPFHEMF [TBC1D10A]: the protein stability index by setting is: under setting [1], 2.46 ± 0.31; under setting [2], 2.57 ± 0.41.

For the sequence PGLPGSTGNPKSEEPEVPDQEGLQ [SPNS1], the protein stability index reads like this: under setting [1], 5.39 ± 0.75; under setting [2], 4.88 ± 0.22.

Consider PGPQDPEESASRQRFGEALQDQEK [ELOA2], for which the protein stability index is, setting by setting: under setting [1], 5.53 ± 0.29; under setting [2], 5.68 ± 0.16.

For PGPQGSAGQRGEPGPKGDPGEKSH [EMID1], the protein stability index runs as follows: under setting [1], 5.62 ± 0.4; under setting [2], 5.49 ± 0.26.

As for PGQPLPGASVRGLHPVQKVILNYP [TRAF3IP2], the protein stability index was 3.55 ± 0.36 under setting [1] and 3.45 ± 0.52 under setting [2].

As to PGRGVYLLKFDNSYSLWRSKSVYY [ACBD3], the protein stability index is, setting by setting: under setting [1], 2.78 ± 0.52; under setting [2], 2.69 ± 0.76.

PKAKAKAKAKAKDQTKAQAAAPAS [RPL29]: the protein stability index under setting [1] stood at 5.2 ± 0.22 and the protein stability index under setting [2] turned out to be 5.21 ± 0.072.

Take PKTMSQKEMEQLFSQYGRIITSRI [ELAVL3]: the protein stability index is, setting by setting: under setting [1], 2.68 ± 0.18; under setting [2], 2.76 ± 0.35.

On to PLDMFSEEIKFYELGEEAMEKFRE [KCNA1], for which the protein stability index is 4.71 ± 0.31 under setting [1] and 4.85 ± 0.12 under setting [2].

As to PLPAGSLPPYPPYFEGAPFPHPLW [PWWP2B], the protein stability index amounted to 2.58 ± 0.31 under setting [1] and 2.64 ± 0.37 under setting [2].

Turning to PLSPPPINYNGIFSLKQEETLDYG [NEUROD6], the protein stability index is 4.63 ± 0.38 under setting [1] and 4.36 ± 0.37 under setting [2].

PNYEFKLGKITFIRNSRPLVKKVE [UFD1] yielded a protein stability index under setting [1] of 2.62 ± 0.5 and a protein stability index under setting [2] of 2.77 ± 0.35.

PPALQNNLLSPLLTGTESPFDLEQ [NFE2L1]: the protein stability index by setting is: under setting [1], 4.97 ± 0.29; under setting [2], 5.04 ± 0.1.

As to PPARPRPRSPECRMIPGQPPASAR [IRX6], the protein stability index stood at 4.95 ± 0.21 under setting [1] and 4.9 ± 0.12 under setting [2].

Take PPFMIALACLHVACVVQQKDARQW [CCNC]: the protein stability index was found to be 3.3 ± 0.18 under setting [1] and 3.08 ± 0.35 under setting [2].

PPKSVNPTCMCCQATSSTACHIQ [FAM219A]: the protein stability index is, setting by setting: (treatment: DMSO, c terminus: native) 2.92 ± 0.29; (treatment: MLN4924 1 uM, 8 h, c terminus: native) 3.07 ± 0.16.

Turning to PPLRNYFLEEDNYKNIKRPPGDIM [USP39], the protein stability index is, setting by setting: under setting [1], 3.19 ± 0.19; under setting [2], 3.37 ± 0.17.

Consider PPLSGRSTPKLTSRSAAQDLDRMG [PPFIA4], for which the protein stability index is, setting by setting: under setting [1], 4.49 ± 0.19; under setting [2], 4.62 ± 0.096.

PPPVESELALFQMSVLWLEHDRET [KLHL14]: the protein stability index is 3.18 ± 0.085 under setting [1] and 3.25 ± 0.23 under setting [2].

Turning to PPSEPVPSLEDISCNTWPSMPSYS [TBX5], the protein stability index runs as follows: under setting [1], 4.269 ± 0.038; under setting [2], 4.38 ± 0.19.

For PPYQGGPPRPPMGMRPPVMSQGGR [ZNF207], the protein stability index came to 4.68 ± 0.34 under setting [1] and 4.91 ± 0.16 under setting [2].

With PQELLEWELVVLGKLKWNLAAVTP [CCND2], the protein stability index is 2.47 ± 0.77 under setting [1] and 2.36 ± 0.57 under setting [2].

On to PQELLQSQDFVGEKLGSGEPSHSV [ATE1], for which the protein stability index reads like this: under setting [1], 5.11 ± 0.17; under setting [2], 5.43 ± 0.064.

As for PQGDEEDIASRYPTLWTEQVKSRQ [SMOC2], the protein stability index under setting [1] is 4.55 ± 0.17 and the protein stability index under setting [2] was determined as 4.52 ± 0.091.

Consider PREHHGRGGMLSASAETLPAGFRV [PPFIA4], for which the protein stability index under setting [1] worked out at 3.5 ± 0.44 and the protein stability index under setting [2] was 3.95 ± 0.076.

In the case of PRGARCSNGFPERDPPRPGPSRPA [GCH1], the protein stability index is, setting by setting: under setting [1], 4.71 ± 0.064; under setting [2], 4.47 ± 0.38.

PRLQELLGPSPQRDPQAVKERALS [ZNF263]: the protein stability index by setting is: under setting [1], 4.6 ± 0.27; under setting [2], 4.65 ± 0.3.

Regarding PRNGDQWHEIRQGRLPRIPQVLSQ [WEE1], the protein stability index is 3.12 ± 0.17 under setting [1] and 3.32 ± 0.5 under setting [2].

As to PRNKTENGLTPKKKIQVNSKPSIQ [ATF6], the protein stability index runs as follows: under setting [1], 4.24 ± 0.31; under setting [2], 3.96 ± 0.17.

Turning to PSDLDQFSDSSLIEDSQALHKRPK [LURAP1L], the protein stability index runs as follows: under setting [1], 5.49 ± 0.24; under setting [2], 5.43 ± 0.11.

Consider PSDPPAMSPGPLDALSSPTSVQEA [C2CD2L], for which the protein stability index came out at 5.54 ± 0.18 under setting [1] and 5.42 ± 0.2 under setting [2].

As to PSLSPGSSCVKYLIFLSNFPFSLL [TSPAN10], the protein stability index reads like this: under setting [1], 2.8 ± 0.85; under setting [2], 2.83 ± 0.6.

As to PSPSEVITPWTPSPSEKNSSFTWS [SMTNL2], the protein stability index reads like this: under setting [1], 4.22 ± 0.095; under setting [2], 4 ± 0.062.

Take PTHPSSTHALAEWASRREAFAQRP [CDC25B]: the protein stability index under setting [1] stood at 4 ± 0.26 and the protein stability index under setting [2] came out at 3.91 ± 0.3.

PTIDTGYDSQPQDVLGIRQLERPL [TRAF3IP2] returned a protein stability index under setting [1] of 4.2 ± 0.28 and a protein stability index under setting [2] of 4.4 ± 0.37.

On to PTPDDHVFRWLAYSYASTHRLMTD [CPXM2], for which the protein stability index runs as follows: under setting [1], 2.64 ± 0.49; under setting [2], 2.62 ± 0.59.

On to PTPKCLRLCFFPFVENGHSESSGQ [CFHR2], for which the protein stability index stood at 2.54 ± 0.093 under setting [1] and 2.72 ± 0.24 under setting [2].

On to PTRNDLESGLGHFSLRVHTGCHKK, for which the protein stability index was 4.06 ± 0.18 under setting [1] and 4.11 ± 0.18 under setting [2].

On to PVANSGTKPKTTAIQGISEKEKAE [DLC1], for which the protein stability index came to 5.51 ± 0.28 under setting [1] and 5.68 ± 0.28 under setting [2].

As to PVGRSWHSLTPVSSDHLFLFGGFT [KLHDC2], the protein stability index turned out to be 2.3 ± 0.53 under setting [1] and 1.87 ± 0.096 under setting [2].

Turning to PVIIAAVGTRQNEELPCTCPLCTS [RHOBTB3], the protein stability index turned out to be 3.76 ± 0.37 under setting [1] and 3.92 ± 0.35 under setting [2].

Consider PVLQSRTGLVYDQNMMNHCNLWDS [HDAC6], for which the protein stability index turned out to be 2.75 ± 0.41 under setting [1] and 2.93 ± 0.33 under setting [2].

Sequence PVPSAPVIDLAESLVADNCVTLVW [FSD1] yielded a protein stability index under setting [1] of 2.56 ± 0.37 and a protein stability index under setting [2] of 2.1 ± 0.24.

As to PVRKLYDDCSSTIVEDPQTKCEYM [ESRRG], the protein stability index reads like this: under setting [1], 4.47 ± 0.21; under setting [2], 4.64 ± 0.19.

Regarding PYTELRKQPLRKYVTPSDFDQLKQ [EFHC1], the protein stability index runs as follows: under setting [1], 3.57 ± 0.2; under setting [2], 3.51 ± 0.11.

Consider PYTPSPSSSRPISPGLSYASHTVG [CCDC6], for which the protein stability index was found to be 3.84 ± 0.17 under setting [1] and 3.69 ± 0.19 under setting [2].

Consider QAEVLSRQITSPVSGINGDIRAKK [HNF4A], for which the protein stability index runs as follows: under setting [1], 5.05 ± 0.22; under setting [2], 5.09 ± 0.036.

For QAFQLPKLGALLSRCRKLVEYFQQ [ZBED1], the protein stability index worked out at 2.52 ± 0.5 under setting [1] and 2.43 ± 0.29 under setting [2].

As to QALAQAIKEAKEQHPDMSVTKVVV [EPB41L3], the protein stability index amounted to 2.44 ± 0.34 under setting [1] and 2.53 ± 0.27 under setting [2].

Consider QALLRISLDKVQRSLGPRAPSLRR [SERTAD3], for which the protein stability index by setting is: under setting [1], 2.68 ± 0.46; under setting [2], 2.62 ± 0.36.

Turning to QAMEEDLIVGLQGMDLNLEAEALA [HDAC6], the protein stability index turned out to be 4.8 ± 0.23 under setting [1] and 4.92 ± 0.25 under setting [2].

Sequence QAPGQPPGNQAEHGAVTVGGTSVG [ZBTB22] had a protein stability index under setting [1] of 4.9 ± 0.43 and a protein stability index under setting [2] of 5.17 ± 0.21.

QCDALIDALNRRKAQLLARVNKEH [TRIM9] had a protein stability index under setting [1] of 3.05 ± 0.2 and a protein stability index under setting [2] of 3.27 ± 0.23.

For the sequence QDNNCHFDAALVSFINFFTSVLAT [SLC6A17], the protein stability index by setting is: under setting [1], 2.91 ± 0.3; under setting [2], 2.75 ± 0.3.

The sequence QDPLKFYKKIYFCHSCQLYLPSTE [IQUB] showed a protein stability index under setting [1] of 1.94 ± 0.41 and a protein stability index under setting [2] of 2.12 ± 0.66.

As to QDVVQAADLLLLTDLKTLCCEFLE [GAN], the protein stability index reads like this: under setting [1], 2.55 ± 0.13; under setting [2], 2.6 ± 0.27.

The sequence QEILHRDLKLGNFFINEAMELKVG [PLK2] yielded a protein stability index under setting [1] of 2.58 ± 0.25 and a protein stability index under setting [2] of 2.76 ± 0.31.

As for QEPDFIDDIEEKTPISNEVEMESE [KMT2E], the protein stability index is, setting by setting: under setting [1], 5.24 ± 0.22; under setting [2], 5.43 ± 0.23.

In the case of QEPEVPCAAVLPGKPGDRNCPEFP [RSPH3], the protein stability index reads like this: under setting [1], 5.21 ± 0.12; under setting [2], 5.13 ± 0.14.

For QEVPHEGPMCDLLWSDPDDRGGWG [PPP2CA], the protein stability index under setting [1] is 4.39 ± 0.32 and the protein stability index under setting [2] came to 4.61 ± 0.2.

For QGSQASQAPPVPGPPPGAPHTPQT [NR2F2], the protein stability index turned out to be 5.13 ± 0.27 under setting [1] and 5 ± 0.51 under setting [2].

As for QHYTETALDEIKLLKCVRESDPSD [SRPK2], the protein stability index is, setting by setting: under setting [1], 4.82 ± 0.22; under setting [2], 4.92 ± 0.16.
